Test results from the supplement of paper PMC12764529.
± gives the half width of the 95% confidence interval.

Columns and labels:
[1] = folding stability dG unfold from chymotrypsin proteolysis; higher = more stable
Outline: (§1)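 Unfolding free energy was derived, per protease or combined, by relating Bayesian-fitted K50 values from sequencing counts to a sequence-predicted unfolded-state K50 and a shared folded-state K50. The underlying digests exposed cysteine-free mini-proteins under 80 residues, in a PA-tagged cDNA display construct, to trypsin and chymotrypsin at 11 threefold-diluted concentrations and to a no-protease condition. A filter kept only designs with AlphaFold2 dimer inter-PAE above 15.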

[2] = folding stability dG unfold from trypsin proteolysis; higher = more stable
Outline: as §1

[3] = folding stability dG unfold (combined trypsin and chymotrypsin); higher = more stable
Outline: as §1

| Sequence | folding stability dG unfold [1] | folding stability dG unfold [2] | folding stability dG unfold [3] |
| --- | --- | --- | --- |
| SAGGSAGGSAGPLRPRLYRVRFTNPDGSRREFLVPEGATLEEILKRFNIPESGRVELEPVSAGGSAGGSAGG [r11_340_TrMRF] | 2.04 ± 0.07 kcal/mol | 2.3 ± 0.033 kcal/mol | 2.26 ± 0.082 kcal/mol |
| SAGMVITVPSDVPVEELLELARELARELGGGRVEVRTHPDNPEIVTATIDIPGTGKRILIINAPPGVLASAG [r5_912_TrMRF] | 2.37 ± 0.028 kcal/mol | 2.66 ± 0.038 kcal/mol | 2.52 ± 0.048 kcal/mol |
| SAGGMFLRIEPEDGSRFEIPLNDPSLPLEVVVGLVSKYMDGPVKLKLTLVLPEEEVEYEYEIPLEKKSAGGS [r16_216_TrMRF] | 2.37 ± 0.061 kcal/mol | 1.24 ± 0.028 kcal/mol | 1.98 ± 0.098 kcal/mol |
| SAGGSAMYKVEVTATTSSSSTPYPLEMDFETEEEAKERVKKYLEEKYGDPISSIETKIEPVEPGLESAGGSA [r15_670_JUSTAS] | -0.645 ± 0.57 kcal/mol | -0.314 ± 0.21 kcal/mol | -0.234 ± 0.36 kcal/mol |
| SAGGSAGGSAGGMTLEEVKKALEELGIKEENQTVTIELEDGSKVKITVKDGKVVLEVEPSAGGSAGGSAGGS [r10_604_TrROS_Hall] | 2.19 ± 0.1 kcal/mol | 2.81 ± 0.18 kcal/mol | 2.54 ± 0.13 kcal/mol |
| SMFTLVLPDGSVIPVIKGDSTTTVYDPRTGRTLPIPSSTVEENSIEEIVERILAELEKLGVPAQPVEILESA [r9_1211_JUSTAS] | 1.72 ± 0.032 kcal/mol | 1.99 ± 0.035 kcal/mol | 1.84 ± 0.034 kcal/mol |
| SAKLAEEIAKKILPEVKEVKILKIEVKKDPKSKFKVIKIEMLVKMPKGEKKIKIEIKPGKPKIKIIPLDSAG [r14_397_TrMRF] | 2.85 ± 0.1 kcal/mol | 2.16 ± 0.09 kcal/mol | 2.67 ± 0.22 kcal/mol |
| SAGGSAGGSAEELAKKLAEELRKEHNLEVTVEEVELKEEEIPGLKFKPGQKLLVITVKKKDSAGGSAGGSAG [r3_229_TrROS_Hall] | 0.227 ± 0.069 kcal/mol | 0.901 ± 0.033 kcal/mol | 0.604 ± 0.13 kcal/mol |
| SAGGSAGGSAAKIVDINISVRRSPENGYWKIPITIRIKGPNGKEQEIDLTMVFKIPPGQPLFSAGGSAGGSA [r18_95_TrROS] | 2.88 ± 0.043 kcal/mol | 2.83 ± 0.072 kcal/mol | 2.9 ± 0.15 kcal/mol |
| SAGGSAGGKKVIVKIKIKVKDKETGEEKEIEITLEFETEEEAKAAIEALKALPPGVEIKIELLPSAGGSAGG [r6_999_TrROS_Hall] | 2.72 ± 0.097 kcal/mol | 4.42 ± 0.21 kcal/mol | 4.19 ± 0.28 kcal/mol |
| SKEEEEEIEIEIVVPNLTEEEIKELAKELLEKKGYEVEEIEITEEELEELKNKKPGDEVVIKIKIKVKKKSA [r9_1163_TrROS_Hall] | 2.27 ± 0.073 kcal/mol | 2.51 ± 0.19 kcal/mol | 2.51 ± 0.2 kcal/mol |
| SAGGSAGGSMVIRVTVKLPNGEEKVFEIEVSEEELKNMSIEELKKLAEELGLPEDVKIELVPPSAGGSAGGS [r12_742_TrROS_Hall] | 3.29 ± 0.17 kcal/mol | 3.29 ± 0.12 kcal/mol | 3.33 ± 0.19 kcal/mol |
| SAGGSAGGSAPGKSITITFLFIWPDGWILVMKITFDPDGPGDIDIEWQWIPIPPPEPPPEDPSAGGSAGGSA [r18_409_TrROS] | 5.37 ± 0.32 kcal/mol | 3.61 ± 0.29 kcal/mol | 5.16 ± 0.46 kcal/mol |
| SAGGMLLVRIRVKLSPEQIKALEEAGFEVVEERDGEVVVRLEVSPEQLEKLKALFPDAEIEVVELPPESAGG [r13_261_TrROS_Hall] | 4.96 ± 0.1 kcal/mol | 5.44 ± 0.49 kcal/mol | 5.26 ± 0.29 kcal/mol |
| SAGGSAGGSAGGKVLKIKFSSIEEILEYIKNNDSVTIVVLDENDNPIGTITVEVKPGSLSAGGSAGGSAGGS [r10_193_TrMRF] | 2.89 ± 0.039 kcal/mol | 1.67 ± 0.046 kcal/mol | 2.5 ± 0.092 kcal/mol |
| SAGGSAGGMIIRITTKNGKTLEIKAKSLEEAKAAIAEKLGLSKENIKPEDITKVEIYSEEELKESAGGSAGG [r6_586_TrROS_Hall] | 3.28 ± 0.15 kcal/mol | 2.95 ± 0.17 kcal/mol | 3.12 ± 0.16 kcal/mol |

| Sequence | folding stability dG unfold [1] | folding stability dG unfold [2] | folding stability dG unfold [3] |
| --- | --- | --- | --- |
| SAGGSAGGSIEELAKKTNIIEVKVTEFPNPKFKKAFIVYKNPKENKYKKGIYIFYDKKDGKLESAGGSAGGS [r12_133_TrMRF] | 0.544 ± 0.43 kcal/mol | -0.185 ± 0.35 kcal/mol | 0.313 ± 0.23 kcal/mol |
| SAGGEKTLTVEYNPEDDYLTFTLTLTRPGYDPVTGKPREYKVTLTFTVPLNEATPEHVKLALEIYEKDSAGG [r13_980_TrMRF] | 4.71 ± 0.15 kcal/mol | 2.88 ± 0.13 kcal/mol | 4.28 ± 0.56 kcal/mol |
| PFDIRINVEYERDPDNGKEYIEVSIMVWDGNPEQARDIAKEILEEHFGWKIKDVKVERFPDMYMITFKIRLS [r1_337_TrROS] | 4.18 ± 0.082 kcal/mol | 3.46 ± 0.12 kcal/mol | 3.78 ± 0.32 kcal/mol |
| SAGGSAKKIKIFSLEELRERFPDLSEEELKKRAEELAKELAERLKEEGKPVEVEIVEVKLPEEEKKSAGGSA [r15_287_TrROS_Hall] | 2.107 ± 0.015 kcal/mol | 0.382 ± 0.13 kcal/mol | 1.69 ± 0.094 kcal/mol |
| SAGMVIELKTEEEAKAKAEEIAKKNPEANVTLVVTDPETGVKTVIPVKIESPKPKPEFDKKNGKYKDKGSAG [r5_870_JUSTAS] | -0.455 ± 0.45 kcal/mol | -0.126 ± 0.2 kcal/mol | -0.0134 ± 0.35 kcal/mol |
| SDMKIRIDDIDIQPLDEDGQPITINYKIEFGGQPVYFQIEIWVKPDGPVVIKIDIYNPDNGKPFEWTFPISA [r9_241_TrROS] | 2.83 ± 0.08 kcal/mol | 2.13 ± 0.09 kcal/mol | 2.48 ± 0.23 kcal/mol |
| SAGGSAGGNKIWIPITITFMVPVRKDPDGKPKLSPEDPDRWKPVEFEIPIEIDPDPDNGKIKIWSAGGSAGG [r6_537_TrROS] | 0.701 ± 0.25 kcal/mol | 1.5 ± 0.042 kcal/mol | 1.26 ± 0.24 kcal/mol |
| SAGGSAGGPNYFVRITIKMRKPNGKPIGEFPIWIPFKSKEQARSLADELAQMPGIEKVDIELVPSAGGSAGG [r6_475_TrROS] | 2.68 ± 0.031 kcal/mol | 2.22 ± 0.025 kcal/mol | 2.53 ± 0.051 kcal/mol |
| SAGGSAPDWKIVDIEPTDNSITITVEAPPGVRVMIFNPGNGKVQHRPFPPGDTITIPPRMYIMVWVSAGGSA [r15_418_TrROS] | 3.121 ± 0.03 kcal/mol | 2.43 ± 0.032 kcal/mol | 2.84 ± 0.081 kcal/mol |
| SAGGSAGGSAGMKVTIEENEETGKFTIKVKTEDGEEKTIEIPKENLEEILAKLPPNVEIISAGGSAGGSAGG [r11_569_TrROS_Hall] | 1.92 ± 0.036 kcal/mol | 2.52 ± 0.11 kcal/mol | 2.14 ± 0.17 kcal/mol |
| SAGGSLIEKIAKEAGIKVEISKEETNGSPVLTITITKGDKNIVFKDDGKDPEKLVKELAKKIGIKPISAGGS [r8_226_JUSTAS] | 0.414 ± 0.086 kcal/mol | 0.499 ± 0.043 kcal/mol | 0.422 ± 0.19 kcal/mol |
| SAGGSAGGSAGGMYRVEIETKGNKKVYIFPNLSPEELAKFLEDPKVVSYKVEKLSPEELESAGGSAGGSAGG [r7_502_JUSTAS] | 2.34 ± 0.094 kcal/mol | 2.04 ± 0.077 kcal/mol | 2.27 ± 0.08 kcal/mol |
| SAGGGPLRTVEVELEFETEEEAEKAIKEYLEKLGLPPEKVEVSFVSREERLVEDKIVYRYKFVFTLPSAGGS [r16_240_JUSTAS] | 5.13 ± 0.13 kcal/mol | 4.09 ± 0.13 kcal/mol | 4.98 ± 0.17 kcal/mol |
| STLEELLEAIEKLPPGAVVRITITLENGEKIELPIEMTVEELKEQLEALAAEHPGKKIEIKIEVIPKEELSA [r9_37_TrROS_Hall] | 2.78 ± 0.28 kcal/mol | 3.66 ± 0.38 kcal/mol | 3.43 ± 0.56 kcal/mol |
| SAGGMYKVKIYFEDTKEEIEIEASAEEVLEAIKNGDLDALKKLFPGAKIVKIEVEKVEPEPEEEEEEESAGG [r13_629_TrROS_Hall] | 3.48 ± 0.23 kcal/mol | 3.33 ± 0.27 kcal/mol | 3.44 ± 0.29 kcal/mol |
